Measured values from PMC10819241.
Read-outs that look alike come from different tables or passages of the source.

Tests used:
[1] = target: CTB-DV1EDIII (after TEV cleavage of hRID-CTB-DV1EDIII) (not stated | dengue virus serotype 1 (DenKor-07 strain)) (UniProt P01556); assay: SDS-PAGE without DTT and boiling (native SDS-PAGE)
[2] = target: CTB-DV1EDIII (after TEV cleavage of hRID-CTB-DV1EDIII) (not stated | dengue virus serotype 1 (DenKor-07 strain)) (UniProt P01556); assay: SEC
[3] = target: CTB-DV1EDIII (after TEV cleavage of hRID-CTB-DV1EDIII) (not stated | dengue virus serotype 1 (DenKor-07 strain)) (UniProt P01556)

Measured: stoichiometry N

CTB-DV1EDIII (after TEV cleavage of hRID-CTB-DV1EDIII) (from UniProt P01556 22-124)
5: all assays above
